Patent US20200277383A1 (DRAGONFLY THERAPEUTICS, published 2020)

T1: EpCAM expressed on human cancer cell lines (H747, HCC827, HCT116) (human (human cancer cell lines), UniProt P16422 24-314)
T1 construct: also called Epithelial cell adhesion molecule; cell expressed EPCAM
T1 sequence: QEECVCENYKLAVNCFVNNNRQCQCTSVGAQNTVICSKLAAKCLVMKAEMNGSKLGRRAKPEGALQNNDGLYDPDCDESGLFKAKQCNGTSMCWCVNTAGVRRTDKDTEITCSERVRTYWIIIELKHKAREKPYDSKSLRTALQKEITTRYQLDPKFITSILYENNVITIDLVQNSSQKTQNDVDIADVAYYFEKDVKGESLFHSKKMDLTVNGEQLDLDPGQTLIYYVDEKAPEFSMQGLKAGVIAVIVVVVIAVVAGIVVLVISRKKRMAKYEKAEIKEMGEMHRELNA


Target: T1, EpCAM expressed on human cancer cell …
Test: flow cytometry on H747 cells, MFI fold over background
Procedure: Human cancer cell lines expressing EPCAM were used to assess tumor antigen binding of TriNKETs derived from EPCAM targeting clone MT110 in F4 and F3′ formats. The human cell lines H747, HCC827 and HCT116 were used to assess binding of TriNKETs and mAb to cell expressed EPCAM. TriNKETs or mAb were diluted and incubated with the respective cells. Binding was detected using a fluorophore conjugated anti-human IgG secondary antibody. Cells were analyzed by flow cytometry, binding MFI to cell expressed EPCAM was normalized to human recombinant IgG1 stained controls to obtain fold over background values.

| binding result | Binder |
| --- | --- |
| binds | A49-F4-TriNKET-MT110 (other, also called EPCAM-targeting F4-TriNKET) heavy 1: EVQLLEQSGAELVRPGTSVKISCKASGYAFTNYWLGWVKQRPGHGLEWIGDIFPGSGNIHYNEKFKGKATLTADKSSSTAYMQLSSLTFEDSAVYFCARLRNWDEPMDYWGQGTTVTVSSASTKGPSVFPLAPSSKSTSGGTAALGCLVKDYFPEPVTVSWNSGALTSGVHTFPAVLQSSGLYSLSSVVTVPSSSLGTQTYICNVNHKPSNTKVDKKVEPKSCDKTHTCPPCPAPELLGGPSVFLFPPKPKDTLMISRTPEVTCVVVDVSHEDPEVKFNWYVDGVEVHNAKTKPREEQYNSTYRVVSVLTVLHQDWLNGKEYKCKVSNKALPAPIEKTISKAKGQPREPRVYTLPPCRDELTKNQVSLTCLVKGFYPSDIAVEWESNGQPENNYKTTPPVLVSDGSFTLYSKLTVDKSRWQQGNVFSCSVMHEALHNHYTQKSLSLSPGSGSGGGGSDIQMTQSPSSVSASVGDRVTITCRASQGISSWLAWYQQKPGKAPKLLIYAASSLQSGVPSRFSGSGSGTDFTLTISSLQPEDFATYYCQQGVSFPRTFGCGTKVEIKGGGGSGGGGSGGGGSGGGGSEVQLVESGGGLVKPGGSLRLSCAASGFTFSSYSMNWVRQAPGKCLEWVSSISSSSSYIYYADSVKGRFTISRDNAKNSLYLQMNSLRAEDTAVYYCARGAPMGAAAGWFDPWGQGTLVTVSS heavy 2: EVQLLEQSGAELVRPGTSVKISCKASGYAFTNYWLGWVKQRPGHGLEWIGDIFPGSGNIHYNEKFKGKATLTADKSSSTAYMQLSSLTFEDSAVYFCARLRNWDEPMDYWGQGTTVTVSSASTKGPSVFPLAPSSKSTSGGTAALGCLVKDYFPEPVTVSWNSGALTSGVHTFPAVLQSSGLYSLSSVVTVPSSSLGTQTYICNVNHKPSNTKVDKKVEPKSCDKTHTCPPCPAPELLGGPSVFLFPPKPKDTLMISRTPEVTCVVVDVSHEDPEVKFNWYVDGVEVHNAKTKPREEQYNSTYRVVSVLTVLHQDWLNGKEYKCKVSNKALPAPIEKTISKAKGQPREPQVCTLPPSRDELTENQVSLTCLVKGFYPSDIAVEWESNGQPENNYKTTPPVLDSDGSFFLYSWLTVDKSRWQQGNVFSCSVMHEALHNHYTQKSLSLSPG light: ELVMTQSPSSLTVTAGEKVTMSCKSSQSLLNSGNQKNYLTWYQQKPGQPPKLLIYWASTRESGVPDRFTGSGSGTDFTLTISSVQAEDLAVYYCQNDYSYPLTFGAGTKLEIKGRTVAAPSVFIFPPSDEQLKSGTASVVCLLNNFYPREAKVQWKVDNALQSGNSQESVTEQDSKDSTYSLSSTLTLSKADYEKHKVYACEVTHQGLSSPVTKSFNRGEC |
| binds | parental monoclonal antibody (mAb) targeting EPCAM (clone MT110) (antibody, V domains shown, detected with an anti-human IgG secondary antibody; also called parental mAb; Solitomab (MT110)) VH: VQLLEQSGAELVRPGTSVKISCKASGYAFTNYWLGWVKQRPGHGLEWIGDIFPGSGNIHYNEKFKGKATLTADKSSSTAYMQLSSLTFEDSAVYFCARLRNWDEPMDYWGQGTTVTVSS VL: ELVMTQSPSSLTVTAGEKVTMSCKSSQSLLNSGNQKNYLTWYQQKPGQPPKLLIYWASTRESGVPDRFTGSGSGTDFTLTISSVQAEDLAVYYCQNDYSYPLTFGAGTKLEIKG |
